The data set concerns the target TNF-α (human, UniProt P01375 77-233). In words: EMSA; 5-20 uM TNF-α. The settings on record: chain copies: 3; label: 32P 5'-end; blunt. (Mobility shift assays separate free from complexed probe on a gel.)

Here are results for one molecule from publication PMC3814720, “Pro-inflammatory cytokines can act as intracellular modulators of commensal bacterial virulence”.

TNF-α, sequence (P01375 77-233): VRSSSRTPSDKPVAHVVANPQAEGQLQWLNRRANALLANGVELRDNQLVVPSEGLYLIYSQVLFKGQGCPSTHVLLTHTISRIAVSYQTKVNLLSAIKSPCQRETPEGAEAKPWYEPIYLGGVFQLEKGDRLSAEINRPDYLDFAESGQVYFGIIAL

B1: app internal region (dsDNA)
DNA 1: GTTTTTTACCAACAGGAGGCTCATTTGGCGACAGTGGCTCACCAATGTTTATCTATGATGCCCAAAAGCAAAAGTG
DNA 2: CACTTTTGCTTTTGGGCATCATAGATAAACATTGGTGAGCCACTGTCGCCAAATGAGCCTCCTGTTGGTAAAAAAC
As for B1, the binding result is on record as “no binding”.
